Results on one molecule are retold here after patent US20190134143A1 (BIOCELLS BEIJING BIOTECH, published 2019).

The target of this assay is T1, PDZ1/2 domain.
T1 construct: domain: PDZ1/2; also called PDZ1/2 protein
Description: SPR, Biacore 3000; PDZ1/2 amine-coupled to the chip, peptide as analyte, 1:1 binding model. In general terms: Surface plasmon resonance follows binding to a sensor surface in real time, without labels.
Description: The immobile phase molecule (ligand) was PDZ1/2 protein with a molecular weight of approximately 20 kD at a concentration of 2 mg/ml. The mobile phase molecule (analyte) was a polypeptide to be screened with a molecular weight of approximately 2 kD at a concentration of 10 mg/ml. The CMS chip was used for fixation using a Biacore 3000 instrument. The electrophoresis buffer was PBS plus 0.005% Tween 20. Fixation was carried out using an amino coupling method. The concentration of the ligand was 10 μg/ml. The fixation buffer was 10 mM sodium acetate, pH 4.0. Fixed amount was 1400 RU, which was fixed to flow cell 2. The used flow rate was 10 μl/ml and the ligand was loaded for 1 minute. 10 mM Gly at pH 2.0+2.5 was used as a regenerant. Regeneration was carried out at a flow rate of 30 μl/min. The loading time was 30 s.

T1 sequence (P78352 65-246): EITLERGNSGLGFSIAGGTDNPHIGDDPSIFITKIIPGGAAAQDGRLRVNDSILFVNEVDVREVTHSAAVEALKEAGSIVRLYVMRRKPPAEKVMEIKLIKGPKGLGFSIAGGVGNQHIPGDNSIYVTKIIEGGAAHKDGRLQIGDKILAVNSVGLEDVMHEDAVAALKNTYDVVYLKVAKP

Consider YGRKKRRQRRRYEKLSSIESDV [chimeric peptide YE-NA-1], for which the Kd (usually the free concentration of one partner at which half of the binding sites on the other are occupied at equilibrium, for simple one-to-one binding) came out at 54.4 nM.
